From article PMC8216272
Numbering of substitutions follows the chain as printed.

Columns and labels:
myoglobin [1] = biological target: T1, myoglobin (UniProt P02144 2-154); assay: aptamer blotting
T1 sequence: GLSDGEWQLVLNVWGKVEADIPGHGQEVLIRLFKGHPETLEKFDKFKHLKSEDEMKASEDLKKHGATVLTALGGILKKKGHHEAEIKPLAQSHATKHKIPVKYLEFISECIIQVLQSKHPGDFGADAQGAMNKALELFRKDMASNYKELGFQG

myoglobin [2] = biological target: T1, myoglobin; assay: aptamer blotting; remark: listed apart in the source
myoglobin [3] = biological target: T1, myoglobin; assay: aptamer blotting; remark: listed apart in the source
myoglobin [4] = biological target: T1, myoglobin; assay: SPR
myoglobin [5] = biological target: T1, myoglobin; assay: aptamer blotting; remark: listed apart in the source
myoglobin [6] = biological target: T1, myoglobin; assay: absorption spectroscopy

B1: N24-01 (structured_DNA)
DNA: ACTAGAACTGATCTACAATTTAGGCCGGGTGTTGGGTGGGTAGGGTTTTCTACATCTCAGCATTCT
B1: binds (myoglobin [1]).

GGGAAGGGTTGGGAGGG (structured_DNA) [PEA1-16]: binds (myoglobin [2]).

GGGATAGGGTTGGGCACTCACAGCTGAATGGG (structured_DNA) [PSA-PQS2]: binds (myoglobin [3]).

With GGGCGGGTTGGGCTGGG (structured_DNA) [PEA3-01] the Kd (myoglobin [4]) was 5.8 nM.

GGGAAGGAGGGAGGAAGGGAGGGAGGG (structured_DNA) [aFGF-PQS20]: binds (myoglobin [3]).

TTTTTTTTTTTTTTTTT (ssDNA) [T17]: binds (myoglobin [5]).

GGGCCGGGAGGGAGGG (structured_DNA) [PEA1-19]: binds (myoglobin [2]).

GGGCCGGGAGGGTGCAGGG (structured_DNA) [Annexin II-PQS]: binds (myoglobin [3]).

B2: N24-03 (structured_DNA)
DNA: ACTAGAACTGATCTACAATTTGGGTTGGGGGGGTTTTGGGTTTTTTTTTCTACATCTCAGCATTCT
B2: binds (myoglobin [1]).

GGGTGGGTTTCTTGGGAGGG (structured_DNA) [PEA1-11]: binds (myoglobin [2]).

GGGCCGGGTTGGGTGTAGAGTGGG (structured_DNA) [PEA1-02]: binds (myoglobin [2]).

GGGTGGGTTGGGAGGG (structured_DNA) [PEA1-20]: binds (myoglobin [2]).

GGGTGGGAGGGAGGG (structured_DNA) [PEA1-13]: binds (myoglobin [2]).

GGGTGGGAAGGGTTGGG (structured_DNA) [PEA1-06]: binds (myoglobin [2]).

GGGTGGGTTTTCTTTGGGTTGGGC (structured_DNA) [N24-07 core]: binds (myoglobin [6]).

GGGTGGGGGTGGGTTTCTTGGGGTGTAAAGTGGG (structured_DNA) [HER2-PQS3]: binds (myoglobin [3]).

B3: N24-06 (structured_DNA)
DNA: ACTAGAACTGATCTACAATTTGGGGGGGTTTTGGGGGGGTTGTTGTTTTCTACATCTCAGCATTCT
B3: binds (myoglobin [1]).

B4: N24-04 (structured_DNA)
DNA: B3 DNA with G33C, G34T, T40G, T41G, G42T, G45T
B4: binds (myoglobin [1]).

B5: N24-07 (with primer sites) (structured_DNA)
DNA: B3 DNA with G25T, G33C, G34T, G35T, G36T, T43G, T44G, G45C
B5: binds (myoglobin [1]).
